From PMC5268383, “Inhibition of STAT3 by Anticancer Drug Bendamustine” (PLoS ONE, 2017)
Where no end group is shown, it is not given here. [ ]: non-standard residue; d: D form. pY = N[C@@H](Cc1ccc(OP(=O)(O)O)cc1)C(=O)O

Key:
[1] = target: T1, recombinant human STAT3 SH2 domain (Homo sapiens, UniProt P40763); experiment: AlphaScreen SH2 binding assay, STAT3
T1 construct: Full-length cDNAs were obtained from a human cDNA library by PCR; Avi-tag (biotinylated in BirA-BL21) (N); made in house; host or cells: Escherichia coli BirA-BL21
Procedure: AlphaScreen assays were performed in a final reaction volume of 25 μL of the assay buffer, containing 10 mM HEPES-NaOH (pH 7.4), 50 mM NaCl, 1 mM EDTA (pH 8.0), 0.1% NP-40, and 10 ng/mL BSA in a 96-well microtiter plate at 25°C. The labeled Phospho-Tyr (pTyr) peptide probe was 5-carboxyfluorescein (FITC)-GpYLPQTV for STAT3, FITC-GpYDKPHVL for STAT1, and FITC-PSpYVNVQN for Grb2. A DMSO solution of BENDA was incubated with 50 nM of each SH2-containing protein for 15 min, 50 nM of the corresponding FITC-pTyr peptide was added, and the mixture was incubated for 90 min. Streptavidin-coated donor beads and anti-FITC acceptor beads were added and incubated for 90 min before the signals were measured with an Envision Xcite plate reader (PerkinElmer Life Sciences, Waltham, MA, USA).

[2] = system: MDA-MB-468 cells and MDA-MB-453 cells; set-up: method as in PMID 26010889; conditions: cited from earlier work
[3] = target: T2, cellular STAT3 in MDA-MB-468 cells (Homo sapiens, UniProt P40763); experiment: Pull-down assay using Bio-BENDA, anti-STAT3 immunoprecipitation; type: cell-based; conditions: 50 μM Bio-BENDA, 4 h
T2 construct: endogenous in cells; host or cells: MDA-MB-468
Procedure: MDA-MB-468 cells were treated with biotinylated BENDA (Bio-BENDA) in the presence or absence of an excess amount of free drugs for 4 h and then lysed in PhosphoSafe™ Extraction Reagent (Merck, Darmstadt, Germany). Lysate (200 μL) was precleared with a mixture of Protein G Plus/Protein A Agarose Suspension (EMD Millipore, Billerica, MA, USA) for 1 h at 4°C and protein A and G agarose were removed by centrifugation at 13,000 rpm for 10 min. The lysate (200 μL) was immunoprecipitated with STAT3 antibody (1 μL) overnight at 4°C on a shaker and the immunocomplex was captured by the addition of a Protein G Plus/Protein A Agarose Suspension (30 μL) slurry for 1 h at 4°C. Samples were washed five times with lysis buffer and then boiled four times in SDS-PAGE sample buffer and run on an SDS-PAGE gel. The protein was transferred to a nitrocellulose membrane. The membranes were blocked in 5% skim milk in TBS/0.1% Tween 20. They were then incubated with streptavidin-HRP diluted at 1:2000 in 1.5% skim milk in TBS (pH7.4)/0.1% Tween 20 overnight at 4°C. Immunoblots were developed by using a chemiluminescent substrate.

[4] = target: T3, cellular STAT1 in MDA-MB-468 cells (Homo sapiens, UniProt P42224); experiment: Pull-down assay using Bio-BENDA, anti-STAT1 immunoprecipitation; type: cell-based; conditions: 50 μM Bio-BENDA, 4 h
T3 construct: endogenous in cells; host or cells: MDA-MB-468

[5] = target: T4, mutant recombinant human STAT3, Cys542 to alanine (human, UniProt P40763 1-770, Cys542 to alanine, biotin (Avi-tag; expressed in BirA-BL21 cells induced with 50 μM biotin)); experiment: AlphaScreen or HTRF; 375 nM mutant recombinant STAT3 incubated with 100 μM BENDA in DMSO for 30 min, then the AlphaScreen SH2 binding assay with the phosphotyrosine peptide; conditions: both partners purified
T4 construct: human STAT3, full-length cDNA, single point mutation by inverse PCR, in modified pET-28a(+); Expression and purification are described for the wild type; also called Cys542 mutant; mutant STAT3 His-Avi-pET28a (+); source: E. coli BirA-BL21, purified (Ni Sepharose, dialysis); not shown: Avi-tag, N-terminal, kept

[6] = target: T5, mutant recombinant human STAT3, C550A (human, UniProt P40763 1-770, C550A, biotin (Avi-tag; expressed in BirA-BL21 cells induced with 50 μM biotin)); experiment: as above; conditions: both partners purified
T5 construct: human STAT3, full-length cDNA, single point mutation by inverse PCR, in modified pET-28a(+); Expression and purification are described for the wild type; also called Cys550 mutant; mutant STAT3 His-Avi-pET28a (+); source: E. coli BirA-BL21, purified (Ni Sepharose, dialysis); not shown: Avi-tag, N-terminal, kept

[7] = target: T6, mutant recombinant human STAT3, Cys468 to alanine (human, UniProt P40763 1-770, Cys468 to alanine, biotin (Avi-tag; expressed in BirA-BL21 cells induced with 50 μM biotin)); experiment: as above; conditions: both partners purified
T6 construct: human STAT3, full-length cDNA, single point mutation by inverse PCR, in modified pET-28a(+); Expression and purification are described for the wild type; also called Cys468 mutant; mutant STAT3 His-Avi-pET28a (+); source: E. coli BirA-BL21, purified (Ni Sepharose, dialysis); not shown: Avi-tag, N-terminal, kept

[8] = target: T7, mutant recombinant human STAT3, C712A (human, UniProt P40763 1-770, C712A, biotin (Avi-tag; expressed in BirA-BL21 cells induced with 50 μM biotin)); experiment: as above; conditions: both partners purified
T7 construct: human STAT3, full-length cDNA, single point mutation by inverse PCR, in modified pET-28a(+); Expression and purification are described for the wild type; also called Cys712 mutant; mutant STAT3 His-Avi-pET28a (+); source: E. coli BirA-BL21, purified (Ni Sepharose, dialysis); not shown: Avi-tag, N-terminal, kept

[9] = target: T8, mutant recombinant human STAT3, Cys687 to alanine (human, UniProt P40763 1-770, Cys687 to alanine, biotin (Avi-tag; expressed in BirA-BL21 cells induced with 50 μM biotin)); experiment: as above; conditions: both partners purified
T8 construct: human STAT3, full-length cDNA, single point mutation by inverse PCR, in modified pET-28a(+); Expression and purification are described for the wild type; also called Cys687 mutant; mutant STAT3 His-Avi-pET28a (+); source: E. coli BirA-BL21, purified (Ni Sepharose, dialysis); not shown: Avi-tag, N-terminal, kept

[10] = target: T9, recombinant human STAT3 (signal transducer and activator of transcription 3) (human, UniProt P40763 1-770, biotin (Avi-tag; expressed in BirA-BL21 cells induced with 50 μM biotin)); experiment: AlphaScreen or HTRF; 50 nM SH2-containing protein pre-incubated 15 min with BENDA in DMSO, then 50 nM FITC-pTyr peptide 90 min; streptavidin-coated donor beads and anti-FITC acceptor beads 90 min; 10 mM HEPES-NaOH pH 7.4, 50 mM NaCl, 1 mM EDTA, 0.1% NP-40, 10 ng/mL BSA, 25°C; conditions: both partners purified
T9 construct: human STAT3, full-length cDNA from a human cDNA library, cloned into modified pET-28a(+); also called rhSTAT3; wild-type rhSTAT3; source: E. coli BirA-BL21, purified (Ni Sepharose, dialysis); not shown: Avi-tag, N-terminal, kept
T9 sequence (P40763 whole entry): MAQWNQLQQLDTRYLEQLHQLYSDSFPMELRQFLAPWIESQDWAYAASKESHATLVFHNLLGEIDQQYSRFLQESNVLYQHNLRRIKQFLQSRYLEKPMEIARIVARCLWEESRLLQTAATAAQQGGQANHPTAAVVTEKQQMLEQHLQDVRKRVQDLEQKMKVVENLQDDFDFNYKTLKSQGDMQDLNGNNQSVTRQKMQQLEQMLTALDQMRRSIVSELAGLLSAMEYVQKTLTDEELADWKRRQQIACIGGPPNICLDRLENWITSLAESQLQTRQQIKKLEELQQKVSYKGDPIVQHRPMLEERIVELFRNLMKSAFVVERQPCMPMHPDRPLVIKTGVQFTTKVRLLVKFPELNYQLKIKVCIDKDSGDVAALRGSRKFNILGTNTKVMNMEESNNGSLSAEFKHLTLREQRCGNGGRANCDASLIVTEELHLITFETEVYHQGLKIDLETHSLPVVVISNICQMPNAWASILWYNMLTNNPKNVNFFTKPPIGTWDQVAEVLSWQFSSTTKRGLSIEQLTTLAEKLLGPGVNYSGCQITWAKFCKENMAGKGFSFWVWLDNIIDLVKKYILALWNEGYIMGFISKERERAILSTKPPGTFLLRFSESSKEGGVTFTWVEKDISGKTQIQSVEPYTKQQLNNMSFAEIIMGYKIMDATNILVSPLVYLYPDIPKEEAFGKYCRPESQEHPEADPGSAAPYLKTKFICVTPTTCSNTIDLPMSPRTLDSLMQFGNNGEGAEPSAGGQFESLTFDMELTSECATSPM

T5 sequence (P40763 whole entry C550A): as the sequence (P40763 whole entry) above, with C550A counted along it
T3 sequence (P42224 whole entry): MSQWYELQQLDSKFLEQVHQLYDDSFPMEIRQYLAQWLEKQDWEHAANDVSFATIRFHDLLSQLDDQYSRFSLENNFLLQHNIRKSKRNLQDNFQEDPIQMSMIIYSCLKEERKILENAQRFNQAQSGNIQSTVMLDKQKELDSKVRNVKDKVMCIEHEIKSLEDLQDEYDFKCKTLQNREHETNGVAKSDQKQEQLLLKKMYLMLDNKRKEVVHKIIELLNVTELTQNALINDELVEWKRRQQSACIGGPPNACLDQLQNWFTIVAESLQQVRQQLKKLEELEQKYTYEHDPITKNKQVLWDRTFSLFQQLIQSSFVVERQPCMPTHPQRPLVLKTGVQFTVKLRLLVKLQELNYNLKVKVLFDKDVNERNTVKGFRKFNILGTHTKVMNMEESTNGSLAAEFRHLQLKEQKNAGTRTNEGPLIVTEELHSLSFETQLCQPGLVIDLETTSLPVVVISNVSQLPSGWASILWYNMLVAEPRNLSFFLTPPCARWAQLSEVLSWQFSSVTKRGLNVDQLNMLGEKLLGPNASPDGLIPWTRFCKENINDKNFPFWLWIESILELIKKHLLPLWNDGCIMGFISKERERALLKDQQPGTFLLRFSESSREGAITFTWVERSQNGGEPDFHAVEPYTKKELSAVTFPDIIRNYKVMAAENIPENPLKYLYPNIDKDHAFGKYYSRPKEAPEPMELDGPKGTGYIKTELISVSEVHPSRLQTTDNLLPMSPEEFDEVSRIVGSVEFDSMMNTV
T6 sequence (P40763 other isoform, or with tags, fused parts or gaps Cys468 to alanine | Cys468 to alanine | mutant): as the sequence (P40763 whole entry) above, with C468A counted along it
T2 sequence (P40763 2-770 limits assumed): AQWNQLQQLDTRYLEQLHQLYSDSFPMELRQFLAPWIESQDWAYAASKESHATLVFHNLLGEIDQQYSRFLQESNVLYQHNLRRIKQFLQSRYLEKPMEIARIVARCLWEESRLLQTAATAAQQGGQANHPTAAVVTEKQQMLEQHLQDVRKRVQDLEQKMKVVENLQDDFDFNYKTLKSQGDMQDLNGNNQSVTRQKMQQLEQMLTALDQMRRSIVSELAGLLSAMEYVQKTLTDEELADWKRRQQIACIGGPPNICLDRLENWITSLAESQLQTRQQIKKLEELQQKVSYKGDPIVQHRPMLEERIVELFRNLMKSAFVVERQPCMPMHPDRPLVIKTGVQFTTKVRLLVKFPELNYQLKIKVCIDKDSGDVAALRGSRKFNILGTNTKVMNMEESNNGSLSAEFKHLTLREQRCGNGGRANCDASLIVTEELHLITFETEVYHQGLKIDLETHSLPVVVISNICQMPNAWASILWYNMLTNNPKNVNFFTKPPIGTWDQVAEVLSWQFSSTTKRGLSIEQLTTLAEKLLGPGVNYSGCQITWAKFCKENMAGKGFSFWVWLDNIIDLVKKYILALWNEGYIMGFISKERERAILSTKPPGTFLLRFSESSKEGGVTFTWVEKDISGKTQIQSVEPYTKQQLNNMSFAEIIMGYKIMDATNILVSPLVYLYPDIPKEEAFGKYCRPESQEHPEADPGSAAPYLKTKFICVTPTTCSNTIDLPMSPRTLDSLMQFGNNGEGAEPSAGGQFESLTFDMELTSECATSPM
T1 sequence (P40763 whole entry, the tested form may be a part): as the sequence (P40763 whole entry) above
T7 sequence (P40763 whole entry C712A): as the sequence (P40763 whole entry) above, with C712A counted along it
T8 sequence (P40763 other isoform, or with tags, fused parts or gaps Cys687 to alanine | Cys687 to alanine | mutant): as the sequence (P40763 whole entry) above, with C687A counted along it
T4 sequence (P40763 other isoform, or with tags, fused parts or gaps Cys542 to alanine | Cys542 to alanine | mutant): as the sequence (P40763 whole entry) above, with C542A counted along it

Molecule: CCOC(=O)CCCc1nc2cc(N(CCCl)CCCl)ccc2n1C [BM1EE, BENDA ethyl ester]
- IC50 [1]: 6.1 µM

Molecule: C=C1C(=O)[C@]23C[C@H]1CC[C@H]2[C@@]12CO[C@]3(O)[C@@H](O)[C@@H]1C(C)(C)C=CC2=O [Eriocalyxin B]
- Growth inhibition of MDA-MB-468 versus MDA-MB-453 cells [2]: inhibit the growth of MDA-MB-468 cells more than that of the MDA-MB-453 cells

Molecule: Cn1c(CCCC(=O)OCCOCCOCCOCCNC(=O)CCC[C@@H]2SC[C@@H]3NC(=O)N[C@@H]32)nc2cc(N(CCCl)CCCl)ccc21 [Bio-BENDA, 13-Oxo-16-[(3aS,4S,6aR)-2-oxohexahydro-1H-thieno[3,4-d]imidazol-4-yl]-3,6,9-trioxa-12-azahexadecyl 4-{5-[bis(2-chloroethyl)amino]-1-methyl-1H-benzo[d]imidazol-2-yl}butanoate]
- Binding to cellular STAT3 (band by streptavidin-HRP after anti-STAT3 IP) [3]: the STAT3 band was observed
- Binding to cellular STAT1 (band by streptavidin-HRP after anti-STAT1 IP) [4]: no band

Molecule: O=[N+]([O-])c1ccc2c(c1)S(=O)(=O)C=C2 [Stattic]
- Growth inhibition of MDA-MB-468 versus MDA-MB-453 cells [2]: inhibit the growth of MDA-MB-468 cells more than that of the MDA-MB-453 cells

B1: 5-carboxyfluorescein (FITC)-GpYLPQTV, labeled Phospho-Tyr peptide probe for STAT3 (peptide)
peptide: G[pY]LPQTV
modifications: not fully specified (N-terminus)
notes: the leading G is not the natural residue there; also called phosphotyrosine peptide; pTyr peptide; source: synthetic peptide (NippiBiomatrix Laboratory)
- binding result [5]: binds
- binding result [6]: binds
- binding result [7]: binds
- binding result [8]: binds
- binding result [9]: binds
- binding result [10]: binds
